Laboratory results: IntAct's records for PubMed 29039417

B1: Protein PTHB1 (Homo sapiens), Q3SYG4 (parent)
chain: MSLFKARDWWSTILGDKEEFDQGCLCLANVDNSGNGQDKIIVGSFMGYLRIFSPHPAKTGDGAQAEDLLLEVDLRDPVLQVEVGKFVSGTEMLHLAVLHSRKLCVYSVSGTLGNVEHGNQCQMKLMYEHNLQRTACNMTYGSFGGVKGRDLICIQSMDGMLMVFEQESYAFGRFLPGFLLPGPLAYSSRTDSFLTVSSCQQVESYKYQVLAFATDADKRQETEQQKLGSGKRLVVDWTLNIGEQALDICIVSFNQSASSVFVLGERNFFCLKDNGQIRFMKKLDWSPSCFLPYCSVSEGTINTLIGNHNNMLHIYQDVTLKWATQLPHIPVAVRVGCLHDLKGVIVTLSDDGHLQCSYLGTDPSLFQAPNVQSRELNYDELDVEMKELQKIIKDVNKSQGVWPMTEREDDLNVSVVVSPNFDSVSQATDVEVGTDLVPSVTVKVTLQNRVILQKAKLSVYVQPPLELTCDQFTFEFMTPDLTRTVSFSVYLKRSYTPSELEGNAVVSYSRPTDRNPDGIPRVIQCKFRLPLKLICLPGQPSKTASHKITIDTNKSPVSLLSLFPGFASQSDDDQVNVMGFHFLGGARITVLASKTSQRYRIQSEQFEDLWLITNELILRLQEYFEKQGVKDFACSFSGSIPLQEYFELIDHHFELRINGEKLEELLSERAVQFRAIQRRLLARFKDKTPAPLQHLDTLLDGTYKQVIALADAVEENQGNLFQSFTRLKSATHLVILLIALWQKLSADQVAILEAAFLPLQEDTQELGWEETVDAAISHLLKTCLSKSSKEQALNLNSQLNIPKDTSQLKKHITLLCDRLSKGGRLCLSTDAAAPQTMVMPGGCTTIPESDLEERSVEQDSTELFTNHRHLTAETPRPEVSPLQGVSE
partner: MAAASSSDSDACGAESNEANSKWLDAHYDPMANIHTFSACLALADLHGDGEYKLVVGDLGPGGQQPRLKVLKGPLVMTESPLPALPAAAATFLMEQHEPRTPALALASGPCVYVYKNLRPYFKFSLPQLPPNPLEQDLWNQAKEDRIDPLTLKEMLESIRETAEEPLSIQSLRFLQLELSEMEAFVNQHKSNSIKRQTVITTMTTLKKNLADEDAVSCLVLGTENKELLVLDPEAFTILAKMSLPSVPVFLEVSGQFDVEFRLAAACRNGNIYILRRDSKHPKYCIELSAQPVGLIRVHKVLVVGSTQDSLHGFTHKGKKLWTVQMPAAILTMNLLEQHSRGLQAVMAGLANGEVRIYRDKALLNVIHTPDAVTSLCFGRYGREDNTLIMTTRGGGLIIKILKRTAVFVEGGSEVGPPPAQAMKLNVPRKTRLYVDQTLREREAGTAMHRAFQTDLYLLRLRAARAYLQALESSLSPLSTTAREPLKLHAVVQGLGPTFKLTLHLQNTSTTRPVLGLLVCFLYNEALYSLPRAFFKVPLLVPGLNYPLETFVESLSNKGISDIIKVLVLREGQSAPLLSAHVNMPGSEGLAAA

Variants of: B1
Settings: with bbs1_human BBS1, Q8NFJ9

effect of a mutation on the interaction	Variant
with no effect	I617E
with no effect	S788E
with no effect	T836E
with no effect	S785E
with no effect	D711K
with no effect	D711E
with no effect	F646E
with no effect	I707A
with no effect	L436E
with no effect	P438A
with no effect	I812E
with no effect	K542E
with no effect	V461A
with no effect	L825A
with no effect	N420A
with no effect	N420E
with no effect	N420K
with no effect	R493A
with no effect	P689A
with no effect	V671K
with no effect	N576K
with no effect	R619K
with no effect	I735E

effect of a mutation on the interaction	Variant
with no effect	I735A
disrupting interaction strength	V459E
with no effect	S507E
with no effect	Y490K
with no effect	I548A
with no effect	H732E
with no effect	S849K
with no effect	Q447A
with no effect	P463E
with no effect	N719K
disrupting interaction strength	R598S
with no effect	R598K
with no effect	A730K
with no effect	H869E
with no effect	Q764A
with no effect	S558K
with no effect	Q524E
with no effect	Q605A
with no effect	Q605E
with no effect	I738E
with no effect	F756A
with no effect	P564K
with no effect	Q717K

effect of a mutation on the interaction	Variant
with no effect	Q791K
with no effect	L795A
with no effect	L795E
with no effect	L562E
with no effect	L720E
with no effect	F684A
with no effect	L744A
with no effect	D480K
with no effect	R407K
with no effect	R407A
with no effect	L766A
with no effect	T725A
with no effect	P511K
with no effect	I451A
with no effect	E644A
with no effect	V440E
with no effect	P497K
with no effect	E625K
with no effect	E466A
with no effect	T478A
with no effect	S570A
with no effect	K687A
with no effect	K687E

effect of a mutation on the interaction	Variant
with no effect	G822E
disrupting interaction strength	A690V
with no effect	L560A
with no effect	G842E
with no effect	Q471K
with no effect	Q471E
disrupting interaction strength	A833S
with no effect	R528K
with no effect	L662E
with no effect	L815A
with no effect	P516A
disrupting interaction strength	G718S
with no effect	R600A
with no effect	P840E
with no effect	L452E
with no effect	A586K
with no effect	A750K
with no effect	Q883A
with no effect	D409K
with no effect	S498A
with no effect	Q677A
disrupting interaction strength	Q677Y
with no effect	L411A

effect of a mutation on the interaction	Variant
with no effect	G841K
with no effect	Q621E
with no effect	Q621K
with no effect	E790A
with no effect	V885A
with no effect	V424E
with no effect	M477K
with no effect	M477E
with no effect	D551A
with no effect	S418E
with no effect	T549E
with no effect	Q569K
with no effect	T829A
with no effect	Y623K
with no effect	T445A
with no effect	L467E
with no effect	I523A
with no effect	S667E
with no effect	Q574E
with no effect	E431K
with no effect	T861E
with no effect	T861K
with no effect	T861A

effect of a mutation on the interaction	Variant
with no effect	I534A
disrupting interaction strength	L616F
with no effect	V772K
with no effect	F724E
with no effect	V437E
disrupting interaction strength	Q705M
with no effect	D429E
with no effect	I550A
with no effect	K704E
with no effect	Q597A
with no effect	Q453E
with no effect	Q453A
with no effect	N658A
with no effect	N658E
with no effect	Q748E
with no effect	D859K
with no effect	I640E
with no effect	P464E
disrupting interaction strength	V734G
with no effect	D513E
with no effect	D513K
with no effect	S637A
with no effect	Q602E

effect of a mutation on the interaction	Variant
with no effect	L681E
with no effect	P520E
with no effect	P520K
with no effect	K526E
with no effect	S593E
with no effect	S439A
with no effect	L500A
with no effect	L642A
disrupting interaction strength	T771S
with no effect	S729A
with no effect	F563A
with no effect	G518A
with no effect	L457K
with no effect	L457A
with no effect	S745A
with no effect	R521E
with no effect	S561A
with no effect	R854A
with no effect	K630A
with no effect	G433E
with no effect	K661A
with no effect	S723E
with no effect	P419E

effect of a mutation on the interaction	Variant
with no effect	S494A
with no effect	S494K
with no effect	D422E
with no effect	H867K
with no effect	E878K
with no effect	V856E
with no effect	V856A
disrupting interaction strength	L618F
with no effect	A832E
with no effect	E406A
disrupting interaction strength	D817N
with no effect	C816A
with no effect	V557E
with no effect	D804A
with no effect	D804E
with no effect	Q722A
disrupting interaction strength	Q722T
with no effect	V879A
with no effect	V879K
with no effect	V485E
